Values quoted from earlier work as cited in publication PMC7611479.

How the values were obtained:
guanylin (Homo sapiens) = guanylin (Homo sapiens) (UniProt Q02747)
[1] = target: uroguanylin (Homo sapiens) (UniProt Q16661)

Kd (guanylin (Homo sapiens)): 10 nM
Kd [1]: 1 nM
Substance: GC-C ECD (from UniProt P25092)
